Experimental data from US20240343817A1 (STAIDSON BEIJING BIOPHARMACEUTICALS, published 2024).
Numbering of substitutions follows the chain as printed.

B1: D2 (antibody, V domains shown)
VH: EVHVKQSGAELVKPGASVKLSCTASGFNIKDAYMHWVKQRPEQGLEWIGRIDPANGNTKYDPKFQGKASITTDTSSNTAYLQLSSLTSEDTAVYYCTPNYYGSRYPFAYWGQGTTVTVSS
VL: DIVLTQSPAIMSASPGEKVSITCSASSSVSYMHWFQQKPGTSPKLWIYSTSNLASGVPARFSGSGSGTSYSLTISRMEADDAATYYCQQGSSYPLTFGAGTKLELK
notes: Full-length chimeric antibody: mouse variable domains with a human IgG1 or IgG4 heavy chain constant domain and a human kappa light chain constant domain; also called anti-CD40 antibody D2
B2: D3 (antibody, V domains shown)
VH: B1 VH with H3Q, V4L, K5Q, A32S, S69T, T72A, T97V, S103A, R104A
VL: B1 VL with T5I, S20T, L45V, S62G, D80E
notes: Full-length chimeric antibody: mouse variable domains with a human IgG1 or IgG4 heavy chain constant domain and a human kappa light chain constant domain; also called anti-CD40 antibody D3
B3: D6 (antibody, V domains shown)
VH: QVQLQQSGAELVRPGVSVKISCKGSGYTFTDHAIHWVKQSHARRLEWIGAISTNYGAATYNQKFKGKATMTVDKSSSTAYMELARLTSEDSAIYYCARRGSHGDWFAYWGQGTLVTVSA
VL: B1 VL with V3E, S20T, A59V, R76S, D80E, Q88H, G90Y, S91H, S92R, Y93S
notes: Full-length chimeric antibody: mouse variable domains with a human IgG1 or IgG4 heavy chain constant domain and a human kappa light chain constant domain; also called anti-CD40 antibody D6
B4: D7 (antibody, V domains shown)
VH: QIQLLQSGAELVKPGASVKLSCTASGFNIKDAYMHWVKQRPEQGLEWIGRIDPANGYTKSDPKFQGKATITSDTSSNTAYLQLSSLTSEDTAVYYCAPNYYGSRYPFAYWGQGTLVTVSS
VL: B1 VL with D1Q, S20T, L45I, S49F, D80E, S92T
notes: Full-length chimeric antibody: mouse variable domains with a human IgG1 or IgG4 heavy chain constant domain and a human kappa light chain constant domain; also called anti-CD40 antibody D7
B5: D4 (antibody, V domains shown)
VH: EVMLVESGAELVRPGASVKLSCTASGFKIKDSYIHWMIQRPEQGLEWIGRIDPTNGNTNFDPKFRGKATLTTDTSSNTAYLQLSSLTSEDTAVYYCVPNYYGSRYPFSYWGQGTTVTVSS
VL: B1 VL with D1Q, S20T, I21M, A25G, T41N, L45I, S49F, D80G, S92T
B6: D1 (antibody, V domains shown)
VH: EVQLQQSGPDLVKPGASMKISCKASVYSFTGYTVNWVKQSHGKSLEWIGLINPYNGGTTYNQKFKGKATLTIDKSSTTAYMELLSLTSEDSAVYYCASSYYSNPYAMDYWGQGTSVTVSS
VL: DIVLNQSQKFMSTSVGDRVSITCKASQNVHTAVAWYQQKPGQSPKALIYLASDRRTGIPDRFTGSGSGTDFTLTIDNVQSEDLADYFCLQHWNYPLTFGAGTKLELK
notes: Full-length chimeric antibody: mouse variable domains with a human IgG1 or IgG4 heavy chain constant domain and a human kappa light chain constant domain; also called anti-CD40 antibody D1; mouse antibody D1
B7: D5 (antibody, V domains shown)
VH: EVQLQQSGAELVSPGVSVKISCKGSGYTFTDHGMHWVKQSHAKSLEWIGVISTSYGVATYNQKFKGKATLSVDKSSSTAYLELARLTSEDSAIYYCARRDSKSPFDYWGQGTTLTVSS
VL: QIVLTQSPAIMSASPGEKITITCSASSSISSNYLHWYQQKPGFSPKLLIYRTSNLASGVPARFSGSGSGTSYSLTISSMEAEDAATYYCHQYHRSPLTFGAGTKLELK
notes: Full-length chimeric antibody: mouse variable domains with a human IgG1 or IgG4 heavy chain constant domain and a human kappa light chain constant domain; also called anti-CD40 antibody D5
B8: D21 (antibody, human IgG4, V domains shown)
VH: QVQLVQSGAEVKKPGASVKVSCKASVYSFTGYTVNWVRQAPGQRLEWMGLINPRNGGTTYNQKFKGRVTLTIDKSASTAYMELSSLRSEDTAVYYCAWSYYSNPYAMDYWGQGTLVTVSS
VL: EIVMTQSPATLSVSPGERATLSCKASQNVHTRVAWYQQKPGQAPRLLIYLASDRRTGIPARFSGSGSGTEFTLTISSLQSEDFAVYYCLQHWNYPLTFGQGTKVEIK
notes: also called optimized anti-CD40 antibody D21
B9: D45 (antibody, human IgG4, V domains shown)
VH: B8 VH with R54Y, T59S, W98S, Y100I
VL: B8 VL with Y94Q
B10: D39 (antibody, human IgG4, V domains shown)
VH: B8 VH with R54Y, W98S, M107Q
VL: B8 VL
B11: D40 (antibody, human IgG4, V domains shown)
VH: B8 VH with R54Y, N55T, W98S, Y101W
VL: B8 VL
B12: D41 (antibody, human IgG4, V domains shown)
VH: B8 VH with R54Y, N55S, W98S, Y100P
VL: B8 VL with Y94A
B13: D46 (antibody, human IgG4, V domains shown)
VH: B8 VH with R54Y, N55S, W98S, S102V
VL: B8 VL
B14: D43 (antibody, human IgG4, V domains shown)
VH: B8 VH with R54T, T59S, W98S, M107S
VL: B8 VL with L21M
B15: D48 (antibody, human IgG4, V domains shown)
VH: B8 VH with R54S, W98S, M107N
VL: B8 VL with R32H
B16: D51 (antibody, human IgG4, V domains shown)
VH: B8 VH with R54E, W98S, M107N
VL: B8 VL
B17: D50 (antibody, human IgG4, V domains shown)
VH: B8 VH with R54Y, T59A, W98S, N103D, M107N
VL: B8 VL
B18: D44 (antibody, human IgG4, V domains shown)
VH: B8 VH with R54Y, W98S, N103L
VL: B8 VL
B19: D26 (antibody, human IgG4, V domains shown)
VH: B8 VH with R54Y, G57R, W98S, M107N
VL: B8 VL
notes: also called optimized anti-CD40 antibody D26
B20: D49 (antibody, human IgG4, V domains shown)
VH: B8 VH with R54Y, T59S, W98S, Y100P
VL: B8 VL with N93T
notes: also called optimized anti-CD40 antibody D49

Target: T1, human CD40 on cells (human, UniProt P25942 21-277)
Assay: cell-based or functional assay

T1 sequence (P25942 21-277 limits assumed): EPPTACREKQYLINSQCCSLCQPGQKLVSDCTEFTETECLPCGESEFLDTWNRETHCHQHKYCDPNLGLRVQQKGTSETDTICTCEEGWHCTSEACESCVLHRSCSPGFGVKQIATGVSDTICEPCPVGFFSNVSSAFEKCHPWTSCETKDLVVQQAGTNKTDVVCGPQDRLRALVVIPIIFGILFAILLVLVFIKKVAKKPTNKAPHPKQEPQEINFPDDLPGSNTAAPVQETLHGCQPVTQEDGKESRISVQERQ

Binder	IC50, HEK-Blue CD40L NF-κB activation assay (SEAP), Fc-3*G4S-CD40L stimulus
B1	0.0171 µg/mL
B2	0.0224 µg/mL
B3	0.00712 µg/mL
B4	0.017 µg/mL
B5	0.0167 µg/mL
B6	0.0215 µg/mL
B7	0.0142 µg/mL

Target: T1, human CD40 on cells
Assay: cell-based or functional assay
Remark: another data set of the same source

Binder	IC50, HEK-Blue CD40L NF-κB activation assay (SEAP), antibody as human IgG4
B8	0.0102 µg/mL
B9	0.0157 µg/mL
B10	0.03 µg/mL
B11	0.0142 µg/mL
B12	0.0194 µg/mL
B13	0.0112 µg/mL
B14	0.0168 µg/mL
B15	0.0307 µg/mL
B16	0.0184 µg/mL
B17	0.0142 µg/mL
B18	0.0201 µg/mL
B19	0.00908 µg/mL
B20	0.0112 µg/mL

Target: T2, human CD40 extracellular domain (recombinant) (human, UniProt P25942 21-193)
T2 construct: Extracellular domain expressed in 293F cells; also called hCD40; CD40-His; not shown: tag (His, Avi-His, mouse Fc or human Fc)
Assay: SPR, Biacore 8K; antibody on CM5 chip, hCD40 at various concentrations
Procedure: The binding affinity of the optimized anti-CD40 antibodies with human […] was characterized using Biacore 8K (GE). Anti-CD4 (antibodies were stabilized on sensor chip CM5 The affinities for hCD40 at various concentrations were measured. Using the SPR technology, the association and dissociation rates were measured, and binding affinity was determined.

T2 sequence (P25942 21-193): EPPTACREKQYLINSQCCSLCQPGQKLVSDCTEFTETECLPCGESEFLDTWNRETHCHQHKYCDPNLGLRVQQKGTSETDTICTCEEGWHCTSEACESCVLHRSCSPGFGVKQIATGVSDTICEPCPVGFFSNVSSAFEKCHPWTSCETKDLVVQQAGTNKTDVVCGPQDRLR

Binder	Kd	koff	kon
B8	2.54 nM	0.000606 s⁻¹	238000 M⁻¹ s⁻¹
B19	2.74 nM	0.000596 s⁻¹	218000 M⁻¹ s⁻¹
B20	1.5 nM	0.000295 s⁻¹	196000 M⁻¹ s⁻¹

Target: T2, human CD40 extracellular domain …
Assay: ELISA; CD40 extracellular domain coated 0.1 µg/well, antibody titrated from 10 µg/mL 1:3, anti-human IgG-HRP
Procedure: (§1) ELISA Binding Assay: The selected monoclonal full-length antibodies D1, D2, D3, D5, D6, or D7 were subjected to binding assays with CD40 extracellular domain of different species, respectively. The assay was designed to identify full-length antibodies that cross-reacted with CD40 of different species. Briefly, the human or Rhesus monkey CD40 prepared in example 1 was dissolved in PBS and coated on […] with 0.1 μg/well followed by incubation at 4° C. overnight. The 96-well plates were washed with TBST before adding antibodies, blocked with 5% milk for 1-2 h at 37° C., and washed again with TBST. Firstly, each antibody sample was diluted to 10 μg/mL, and then serially diluted at a 1:3 ratio. 100 μL of serially diluted antibodies were added to each well and incubated for 1 h at 37° C. After washing with TBST for 6 times, 100 μL of the secondary antibody (goat anti-human IgG-HRP (Sigma. A8667)) was added to each well and incubated for 1 h at 37° C. After washing with TBST for 3 times, TMB was added with 100 μL/well and incubated for 10-20 minutes at 37° C. 2M H₂SO₄ was used to stop the reaction and plates were read for the absorbance at 450 nm. The ELISA results were then analyzed and the binding curves were generated by PRISM.

Binder	EC50
B1	0.193 µg/mL
B2	0.224 µg/mL
B3	0.176 µg/mL
B4	0.261 µg/mL
B6	0.236 µg/mL
B7	0.274 µg/mL

Target: T3, Rhesus monkey CD40 extracellular domain (recombinant) (Rhesus monkey, UniProt F6SNI1 21-193)
T3 construct: extracellular domain; also called RheCD40
Assay: as above
Procedure: as §1

Binder	EC50
B1	0.473 µg/mL
B2	0.0743 µg/mL
B3	0.243 µg/mL
B4	0.133 µg/mL
B6	0.227 µg/mL
B7	0.627 µg/mL

Target: T2, human CD40 extracellular domain …
Assay: ELISA, plate coated with recombinant human CD40 extracellular domain, antibody (human IgG4 format) in serial dilution, anti-human IgG-HRP, OD450
Procedure: as §1
(§2) The biding affinity of the optimized full length CD40 antibodies with human or rhesus monkey CD40 was evaluated by Elisa according to the corresponding protocol as described in Example 2, and ASKP1240 was used as control.

Binder	EC50 (read off the curve)
B8	~0.2 µg/mL
B19	~0.2 µg/mL
B20	~0.2 µg/mL

Target: T3, Rhesus monkey CD40 extracellular domain …
Assay: ELISA, plate coated with recombinant rhesus monkey CD40 extracellular domain, antibody (human IgG4 format) in serial dilution, anti-human IgG-HRP, OD450
Procedure: as §1, §2

Binder	EC50 (read off the curve)
B8	~0.1 µg/mL
B19	~0.1 µg/mL
B20	~0.1 µg/mL
